Experimental data: ChEMBL document CHEMBL1138116, “Synthesis and reactivity with beta-lactamases of a monobactam bearing a retro-amide side chain” (Bioorg Med Chem Lett, 2006)

Experiments:
[1] = substrate: O=C(NCc1ccccc1)C1CN(S(=O)(=O)O)C1=O; assay: (§1) Binding affinity to TEM class A beta lactamase from the TEM2 plasmid; conditions: Escherichia coli
[2] = substrate: O=C(Cc1ccccc1)N[C@H]1CN(S(=O)(=O)O)C1=O; assay: as §1; conditions: Escherichia coli
[3] = substrate: O=C(NCc1ccccc1)C1CN(S(=O)(=O)O)C1=O; assay: (§2) Binding affinity to class A beta lactamase of Staphylococcus aureus PC1
[4] = substrate: O=C(Cc1ccccc1)N[C@H]1CN(S(=O)(=O)O)C1=O; assay: as §2
[5] = substrate: O=C(NCc1ccccc1)C1CN(S(=O)(=O)O)C1=O; assay: (§3) Binding affinity to class C beta lactamase of Enterobacter cloacae P99
[6] = substrate: O=C(Cc1ccccc1)N[C@H]1CN(S(=O)(=O)O)C1=O; assay: as §3
[7] = substrate: O=C(NCc1ccccc1)C1CN(S(=O)(=O)O)C1=O; assay: (§4) Binding affinity to class D beta lactamase OXA1 of Escherichia coli
[8] = substrate: O=C(Cc1ccccc1)N[C@H]1CN(S(=O)(=O)O)C1=O; assay: as §4

B1: Beta-lactamase TEM (Escherichia coli), P62593 (protein)
chain: MSIQHFRVALIPFFAAFCLPVFAHPETLVKVKDAEDQLGARVGYIELDLNSGKILESFRPEERFPMMSTFKVLLCGAVLSRVDAGQEQLGRRIHYSQNDLVEYSPVTEKHLTDGMTVRELCSAAITMSDNTAANLLLTTIGGPKELTAFLHNMGDHVTRLDRWEPELNEAIPNDERDTTMPAAMATTLRKLLTGELLTLASRQQLIDWMEADKVAGPLLRSALPAGWFIADKSGAGERGSRGIIAALGPDGKPSRIVVIYTTGSQATMDERNRQIAEIGASLIKHW
Km [1]: 2500 µM | Km [2]: 6800 µM

B2: Beta-lactamase (Staphylococcus aureus), P00807 (protein)
chain: MKKLIFLIVIALVLSACNSNSSHAKELNDLEKKYNAHIGVYALDTKSGKEVKFNSDKRFAYASTSKAINSAILLEQVPYNKLNKKVHINKDDIVAYSPILEKYVGKDITLKALIEASMTYSDNTANNKIIKEIGGIKKVKQRLKELGDKVTNPVRYEIELNYYSPKSKKDTSTPAAFGKTLNKLIANGKLSKENKKFLLDLMLNNKSGDTLIKDGVPKDYKVADKSGQAITYASRNDVAFVYPKGQSEPIVLVIFTNKDNKSDKPNDKLISETAKSVMKEF
Km [3]: 300 µM | Km [4]: 70 µM

B3: Beta-lactamase class C (Enterobacter cloacae), Q59401 (protein)
chain: MMKKSLCCALLLGISCSALATPVSEKQLAEVVANTVTPLMKAQSVPGMAVAVIYQGKPHYYTFGKADIAANKPVTPQTLFELGSISKTFTGVLGGDAIARGEISLDDPVTRYWPQLTGKQWQGIRMLDLATYTAGGLPLQVPDEVTDNASLLRFYQNWQPQWKPGTTRLYANASIGLFGALAVKPSGMPYEQAMTTRVLKPLKLDHTWINVPKAEEAHYAWGYRDGKAVRAVRVSPGMLDAQAYGVKTNVQDMANWVMANMAPENVADASLKQGIALAQSRYWRIGSMYQGLGWEMLNWPVEANTVVEGSDSKVALAPLPVAEVNPPAPPVKASWVHKTGSTGGFGSYVAFIPEKQIGIVMLANTSYPNPARVEAAYHILEALQ
Km [5]: 75 µM | Km [6]: 1000 µM

B4: Beta-lactamase OXA-1 (Escherichia coli), P13661 (protein)
chain: MKNTIHINFAIFLIIANIIYSSASASTDISTVASPLFEGTEGCFLLYDASTNAEIAQFNKAKCATQMAPDSTFKIALSLMAFDAEIIDQKTIFKWDKTPKGMEIWNSNHTPKTWMQFSVVWVSQEITQKIGLNKIKNYLKDFDYGNQDFSGDKERNNGLTEAWLESSLKISPEEQIQFLRKIINHNLPVKNSAIENTIENMYLQDLDNSTKLYGKTGAGFTANRTLQNGWFEGFIISKSGHKYVFVSALTGNLGSNLTSSIKAKKNAITILNTLNL
Km [7]: 2300 µM | Km [8]: 29 µM
